We go through one molecule from publication PMC8599861 (2021).

The target of assay [1] is T1, Depupylase Dop from Corynebacterium glutamicum, wild type (Corynebacterium glutamicum).
T1 chain: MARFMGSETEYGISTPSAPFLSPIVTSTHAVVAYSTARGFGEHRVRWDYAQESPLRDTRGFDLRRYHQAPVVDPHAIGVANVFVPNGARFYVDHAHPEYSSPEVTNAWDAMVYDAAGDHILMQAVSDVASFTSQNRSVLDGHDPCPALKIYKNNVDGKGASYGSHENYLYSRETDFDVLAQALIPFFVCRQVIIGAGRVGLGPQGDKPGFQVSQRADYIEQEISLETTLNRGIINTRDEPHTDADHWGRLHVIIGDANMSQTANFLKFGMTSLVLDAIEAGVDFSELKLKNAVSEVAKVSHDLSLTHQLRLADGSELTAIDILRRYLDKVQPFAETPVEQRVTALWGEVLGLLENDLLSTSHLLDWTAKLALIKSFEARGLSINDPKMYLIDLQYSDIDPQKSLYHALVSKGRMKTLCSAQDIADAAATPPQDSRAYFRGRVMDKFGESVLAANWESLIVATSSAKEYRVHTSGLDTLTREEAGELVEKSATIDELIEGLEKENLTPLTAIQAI
Description: ITC. (ITC needs no label: the signal is the heat of the interaction.)

Assay [2] concerns the target CgluDopGS, Dop-loop variant of Dop from Corynebacterium glutamicum (Dop-loop H43-I77 replaced with (GS)4) (Corynebacterium glutamicum). The assay can be described thus: ITC.

B1: Prokaryotic ubiquitin-like protein Pup from Corynebacterium glutamicum with C-terminal glutamate (natural protein)
chain: MNAKQTQIMGGGGRDEDNAEDSAQASGQVQINTEGVDSLLDEIDGLLENNAEEFVRSYVQKGGE
Broadly, the Kd is the free concentration of one partner at which half of the binding sites on the other are occupied at equilibrium, for simple one-to-one binding. Read a low Kd as tighter binding. Take B1: the Kd in assay [1] turned out to be 186 nM; in assay [2], 76 nM.
